T1: TNFR1 (Homo sapiens, UniProt P19438)
T1 chain: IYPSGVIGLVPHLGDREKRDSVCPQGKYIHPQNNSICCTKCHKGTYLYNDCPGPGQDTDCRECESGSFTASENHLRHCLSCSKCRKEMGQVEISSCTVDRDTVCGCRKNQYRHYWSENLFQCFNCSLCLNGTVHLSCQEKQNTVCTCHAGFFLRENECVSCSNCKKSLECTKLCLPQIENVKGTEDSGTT

B1: M1Y (designed binder)
chain: YTLQELLREEALRRAEAEAFRYALELLAEKFPEQKEYLLDLAEEIESQIRSLSGVDVEDVRKFLDKEWAWVKELLAEHPAELAEVEAARAARLAELRAEVEAKVAA
B2: E25D (designed binder)
chain: MTLQELLREEALRRAEAEAFRYALDLLAEKFPEQKEYLLDLAEEIESQIRSLSGVDVEDVRKFLDKEWAWVKELLAEHPAELAEVEAARAARLAELRAEVEAKVAA
B3: M1S (designed binder)
chain: STLQELLREEALRRAEAEAFRYALELLAEKFPEQKEYLLDLAEEIESQIRSLSGVDVEDVRKFLDKEWAWVKELLAEHPAELAEVEAARAARLAELRAEVEAKVAA
B4: E29G (designed binder)
chain: MTLQELLREEALRRAEAEAFRYALELLAGKFPEQKEYLLDLAEEIESQIRSLSGVDVEDVRKFLDKEWAWVKELLAEHPAELAEVEAARAARLAELRAEVEAKVAA
B5: Q4P (designed binder)
chain: MTLPELLREEALRRAEAEAFRYALELLAEKFPEQKEYLLDLAEEIESQIRSLSGVDVEDVRKFLDKEWAWVKELLAEHPAELAEVEAARAARLAELRAEVEAKVAA
B6: R97Y (designed binder)
chain: MTLQELLREEALRRAEAEAFRYALELLAEKFPEQKEYLLDLAEEIESQIRSLSGVDVEDVRKFLDKEWAWVKELLAEHPAELAEVEAARAARLAELYAEVEAKVAA
B7: D65V (designed binder)
chain: MTLQELLREEALRRAEAEAFRYALELLAEKFPEQKEYLLDLAEEIESQIRSLSGVDVEDVRKFLVKEWAWVKELLAEHPAELAEVEAARAARLAELRAEVEAKVAA
B8: I49K (designed binder)
chain: MTLQELLREEALRRAEAEAFRYALELLAEKFPEQKEYLLDLAEEIESQKRSLSGVDVEDVRKFLDKEWAWVKELLAEHPAELAEVEAARAARLAELRAEVEAKVAA
B9: A15L (designed binder)
chain: MTLQELLREEALRRLEAEAFRYALELLAEKFPEQKEYLLDLAEEIESQIRSLSGVDVEDVRKFLDKEWAWVKELLAEHPAELAEVEAARAARLAELRAEVEAKVAA
B10: E43G (designed binder)
chain: MTLQELLREEALRRAEAEAFRYALELLAEKFPEQKEYLLDLAGEIESQIRSLSGVDVEDVRKFLDKEWAWVKELLAEHPAELAEVEAARAARLAELRAEVEAKVAA
B11: F31D (designed binder)
chain: MTLQELLREEALRRAEAEAFRYALELLAEKDPEQKEYLLDLAEEIESQIRSLSGVDVEDVRKFLDKEWAWVKELLAEHPAELAEVEAARAARLAELRAEVEAKVAA
B12: A23P (designed binder)
chain: MTLQELLREEALRRAEAEAFRYPLELLAEKFPEQKEYLLDLAEEIESQIRSLSGVDVEDVRKFLDKEWAWVKELLAEHPAELAEVEAARAARLAELRAEVEAKVAA
B13: E36H (designed binder)
chain: MTLQELLREEALRRAEAEAFRYALELLAEKFPEQKHYLLDLAEEIESQIRSLSGVDVEDVRKFLDKEWAWVKELLAEHPAELAEVEAARAARLAELRAEVEAKVAA
B14: L27A (designed binder)
chain: MTLQELLREEALRRAEAEAFRYALELAAEKFPEQKEYLLDLAEEIESQIRSLSGVDVEDVRKFLDKEWAWVKELLAEHPAELAEVEAARAARLAELRAEVEAKVAA
B15: L82A (designed binder)
chain: MTLQELLREEALRRAEAEAFRYALELLAEKFPEQKEYLLDLAEEIESQIRSLSGVDVEDVRKFLDKEWAWVKELLAEHPAEAAEVEAARAARLAELRAEVEAKVAA
B16: E67Q (designed binder)
chain: MTLQELLREEALRRAEAEAFRYALELLAEKFPEQKEYLLDLAEEIESQIRSLSGVDVEDVRKFLDKQWAWVKELLAEHPAELAEVEAARAARLAELRAEVEAKVAA
B17: A90P (designed binder)
chain: MTLQELLREEALRRAEAEAFRYALELLAEKFPEQKEYLLDLAEEIESQIRSLSGVDVEDVRKFLDKEWAWVKELLAEHPAELAEVEAARPARLAELRAEVEAKVAA
B18: L38V (designed binder)
chain: MTLQELLREEALRRAEAEAFRYALELLAEKFPEQKEYVLDLAEEIESQIRSLSGVDVEDVRKFLDKEWAWVKELLAEHPAELAEVEAARAARLAELRAEVEAKVAA
B19: L64H (designed binder)
chain: MTLQELLREEALRRAEAEAFRYALELLAEKFPEQKEYLLDLAEEIESQIRSLSGVDVEDVRKFHDKEWAWVKELLAEHPAELAEVEAARAARLAELRAEVEAKVAA
B20: E43R (designed binder)
chain: MTLQELLREEALRRAEAEAFRYALELLAEKFPEQKEYLLDLAREIESQIRSLSGVDVEDVRKFLDKEWAWVKELLAEHPAELAEVEAARAARLAELRAEVEAKVAA
B21: L75N (designed binder)
chain: MTLQELLREEALRRAEAEAFRYALELLAEKFPEQKEYLLDLAEEIESQIRSLSGVDVEDVRKFLDKEWAWVKELNAEHPAELAEVEAARAARLAELRAEVEAKVAA
B22: K72M (designed binder)
chain: MTLQELLREEALRRAEAEAFRYALELLAEKFPEQKEYLLDLAEEIESQIRSLSGVDVEDVRKFLDKEWAWVMELLAEHPAELAEVEAARAARLAELRAEVEAKVAA
B23: I49F (designed binder)
chain: MTLQELLREEALRRAEAEAFRYALELLAEKFPEQKEYLLDLAEEIESQFRSLSGVDVEDVRKFLDKEWAWVKELLAEHPAELAEVEAARAARLAELRAEVEAKVAA
B24: V55G (designed binder)
chain: MTLQELLREEALRRAEAEAFRYALELLAEKFPEQKEYLLDLAEEIESQIRSLSGGDVEDVRKFLDKEWAWVKELLAEHPAELAEVEAARAARLAELRAEVEAKVAA
B25: E44K (designed binder)
chain: MTLQELLREEALRRAEAEAFRYALELLAEKFPEQKEYLLDLAEKIESQIRSLSGVDVEDVRKFLDKEWAWVKELLAEHPAELAEVEAARAARLAELRAEVEAKVAA
B26: L27W (designed binder)
chain: MTLQELLREEALRRAEAEAFRYALELWAEKFPEQKEYLLDLAEEIESQIRSLSGVDVEDVRKFLDKEWAWVKELLAEHPAELAEVEAARAARLAELRAEVEAKVAA
B27: E29W (designed binder)
chain: MTLQELLREEALRRAEAEAFRYALELLAWKFPEQKEYLLDLAEEIESQIRSLSGVDVEDVRKFLDKEWAWVKELLAEHPAELAEVEAARAARLAELRAEVEAKVAA
B28: A69Q (designed binder)
chain: MTLQELLREEALRRAEAEAFRYALELLAEKFPEQKEYLLDLAEEIESQIRSLSGVDVEDVRKFLDKEWQWVKELLAEHPAELAEVEAARAARLAELRAEVEAKVAA
B29: E73V (designed binder)
chain: MTLQELLREEALRRAEAEAFRYALELLAEKFPEQKEYLLDLAEEIESQIRSLSGVDVEDVRKFLDKEWAWVKVLLAEHPAELAEVEAARAARLAELRAEVEAKVAA
B30: S47V (designed binder)
chain: MTLQELLREEALRRAEAEAFRYALELLAEKFPEQKEYLLDLAEEIEVQIRSLSGVDVEDVRKFLDKEWAWVKELLAEHPAELAEVEAARAARLAELRAEVEAKVAA
B31: V100S (designed binder)
chain: MTLQELLREEALRRAEAEAFRYALELLAEKFPEQKEYLLDLAEEIESQIRSLSGVDVEDVRKFLDKEWAWVKELLAEHPAELAEVEAARAARLAELRAESEAKVAA
B32: E36W (designed binder)
chain: MTLQELLREEALRRAEAEAFRYALELLAEKFPEQKWYLLDLAEEIESQIRSLSGVDVEDVRKFLDKEWAWVKELLAEHPAELAEVEAARAARLAELRAEVEAKVAA
B33: S47H (designed binder)
chain: MTLQELLREEALRRAEAEAFRYALELLAEKFPEQKEYLLDLAEEIEHQIRSLSGVDVEDVRKFLDKEWAWVKELLAEHPAELAEVEAARAARLAELRAEVEAKVAA
B34: L38I (designed binder)
chain: MTLQELLREEALRRAEAEAFRYALELLAEKFPEQKEYILDLAEEIESQIRSLSGVDVEDVRKFLDKEWAWVKELLAEHPAELAEVEAARAARLAELRAEVEAKVAA

The assay addresses T1, TNFR1. In words: yeast display SC50.
As for B1, the “apparent Kd (screen)” value came out at 0.593 nM. With B2, the “apparent Kd (screen)” value was 1.27 nM. For the molecule B3, the “apparent Kd (screen)” value was 0.539 nM. In the case of B4, the “apparent Kd (screen)” value came to 0.49 nM. With B5 the figure was 3.3 nM. With B6 the figure was 0.49 nM. With B7, the “apparent Kd (screen)” value is 0.956 nM. As for B8, the figure is 7.78 nM.

B9: the “apparent Kd (screen)” value was found to be 0.368 nM. As for B10, the figure is 0.79 nM; as for B11, 2.25 nM. With B12, the “apparent Kd (screen)” value was 0.718 nM. With B13 the figure was 0.49 nM. With B14 the figure was 0.593 nM; with B15, 0.869 nM.

Take B16: the “apparent Kd (screen)” value turned out to be 11.4 nM.

In the case of B17, the “apparent Kd (screen)” value was 1.4 nM. As for B18, the figure is 0.172 nM. With B19 the figure was 0.956 nM. With B20 the figure was 0.593 nM; with B21, 0.593 nM; with B22, 0.49 nM. In the case of B23, the “apparent Kd (screen)” value was 0.539 nM. With B24 the figure was 0.539 nM; with B25, 0.956 nM; with B26, 0.956 nM. With B27 the figure was 0.653 nM.

With B28, the “apparent Kd (screen)” value amounted to 0.653 nM. With B29 the figure was 1.05 nM.

Turning to B30, the “apparent Kd (screen)” value came to 0.446 nM. B31: the “apparent Kd (screen)” value stood at 0.49 nM. With B32 the figure was 0.539 nM. In the case of B33, the “apparent Kd (screen)” value was found to be 0.539 nM. As for B34, the figure is 0.405 nM.
